# How the values were obtained:
# Assay in all cases: Solid phase binding assay, LRP2 CR89 mutant
# LRP2 CR89 R1088D (YVWD) = biological target: T1, LRP2 CR89 R1088D (YVWD) (Homo sapiens, UniProt P98164, R1089D)
# T1 construct: two CR pairs from LRP2 (CR89, CR3435); made in house; host or cells: E. coli BL21(DE3) CodonPlus-RIPL, pET30(+)a
# Source text: (§1) Each amplified fragment was sequentially digested with BamHI and HindIII and then ligated into similarly digested pET30(+)a. The resulting plasmids encode proteins consisting of N-terminal hexahistidine and S-peptides fused to the CR fragment. Ligation reactions were transformed into XL-Blue MRF′ (Stratagene) by electroporation and plasmids isolated from single colonies. Three mutations, […], V1047D and R1088D, were introduced into the LRP2 CR89 expression plasmid both singly and in combination using Stratagene QuikChange II XL reagents and the primers: […]
# (§2) Purified, refolded CR protein (1 μg) was bound to Nunc Maxisorp™ 96-well plates in TBS pH 8 supplemented with 5 mM CaCl2 (TBSC) overnight at 4° C. Wells were washed with TBSC and then blocked with TBSC containing 2% bovine serum albumin (BSA). RAP ligands were then incubated with the immobilized receptor at a range of concentrations for 2 hours in the above blocking buffer supplemented with 0.05% Tween-20 at room temperature. Control wells contained no added ligand. As an additional control, to determine whether the absence of calcium affected binding, 10 mM EGTA was included in the incubation medium for some samples. Wells were washed with TBSTC and bound ligands detected with polyclonal anti-RAP (BP41/42, 1:1,000, BioMarin). Excess primary antibody was removed and wells washed before incubation with the secondary antibody, HRP-conjugated goat anti rabbit IgG (Bio-Rad). After washing, TMB substrate solutions (Bio-Rad) were added to detect HRP. Color development was stopped with 1N HCl. Absorption at 450 nm was measured with a microplate spectrophotometer (Molecular Devices). Data were plotted and Kd values derived by non-linear regression with the assumption of single-site binding (GraphPad Prism).
# (§3) One premise of this work was that amino acids at A, C, A′ and C′ within the calcium-binding loops of a CR pair were key determinants of binding affinity for RAP and would be similarly important for binding of RAP variants. To test this idea, mutant LRP2 CR89 were prepared in which the native, non-canonical residues at these positions were sequentially substituted with the non-native, canonical residues. As defined above, the A, C, A′, C′ string for LRP2 CR89 is YVWR. Mutants included LRP2 CR89 Y1042W (WVWR), LRP2 CR89 V1047D (YDWR), LRP2 CR89 R1088D (YVWD), LRP2 CR89 V1047D R1088D (YDWD), LRP2 CR89 Y1042W V1047D R1088D (WDWD), LRP2 CR89 Y1042W V1047D (WDWR), LRP2 CR89 Y1042W R1088D (WVWD). Binding to both RAP d3 and MegaRAP1 d3 were measured for each LRP2 CR89 mutant by solid-phase assay. Only the YVWD mutant retained significant binding to MegaRAP1 d3, with an approximate 2-fold loss of affinity relative to LRP2 CR89 (FIG. 6 and Table 3). […] The A′ position in LRP2 CR89 is a tryptophan, the canonical residue for wild-type RAP d3 binding, and was not mutated in our studies.
# LRP2 CR89 V1047D (YDWR) = biological target: T2, LRP2 CR89 V1047D (YDWR) (Homo sapiens, UniProt P98164, V1048D)
# T2 construct: two CR pairs from LRP2 (CR89, CR3435); made in house; host or cells: E. coli BL21(DE3) CodonPlus-RIPL, pET30(+)a
# T2 sequence (P98164 1022-1105 V1048D limits assumed): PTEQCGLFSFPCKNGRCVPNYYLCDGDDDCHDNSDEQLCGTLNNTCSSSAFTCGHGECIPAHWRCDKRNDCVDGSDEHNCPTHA
# Source text: as §1, §2, §3
# [1] = biological target: T3, LRP2 CR89 V1047D R1088D (YDWD) (Homo sapiens, UniProt P98164, R1089D/V1048D)
# T3 construct: two CR pairs from LRP2 (CR89, CR3435); made in house; host or cells: E. coli BL21(DE3) CodonPlus-RIPL, pET30(+)a
# T3 sequence (P98164 1022-1105 V1048D/R1089D limits assumed): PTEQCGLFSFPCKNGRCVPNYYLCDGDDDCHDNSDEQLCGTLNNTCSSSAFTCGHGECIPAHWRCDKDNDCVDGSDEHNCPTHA
# Source text: as §1, §2, §3
# LRP2 CR89 Y1042W (WVWR) = biological target: T4, LRP2 CR89 Y1042W (WVWR) (Homo sapiens, UniProt P98164, Y1043W)
# T4 construct: two CR pairs from LRP2 (CR89, CR3435); made in house; host or cells: E. coli BL21(DE3) CodonPlus-RIPL, pET30(+)a
# T4 sequence (P98164 1025-1102 Y1043W): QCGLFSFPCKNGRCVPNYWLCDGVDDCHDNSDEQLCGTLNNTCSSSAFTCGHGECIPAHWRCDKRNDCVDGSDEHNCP
# Source text: as §1, §2, §3
# [2] = biological target: T5, LRP2 CR89 Y1042W V1047D (WDWR) (Homo sapiens, UniProt P98164, V1048D/Y1043W)
# T5 construct: two CR pairs from LRP2 (CR89, CR3435); made in house; host or cells: E. coli BL21(DE3) CodonPlus-RIPL, pET30(+)a
# Source text: as §1, §2, §3
# T1 sequence (P98164 1022-1105 R1089D limits assumed): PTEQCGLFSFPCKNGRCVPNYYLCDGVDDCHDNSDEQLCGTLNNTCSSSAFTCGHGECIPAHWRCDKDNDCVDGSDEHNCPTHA
# T5 sequence (P98164 1025-1102 Y1043W/V1048D): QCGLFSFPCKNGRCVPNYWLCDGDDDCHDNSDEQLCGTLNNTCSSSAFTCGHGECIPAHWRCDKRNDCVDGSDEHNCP
molecule,measurement,setting,value
"MegaRAP1 d3: d3 of RAP variant selected on LRP2 CR89: S213T, E217K, H249Y, E251K, K256A, K270E (SEQ ID NO: 93) (protein, listed as Homo sapiens) LDRLRRVSHQGYSTEAEFEEPRVIDLWDLEQSANLTDKELEAFREELKHFKAKIEAHNHYQKQLEIAHEDLRHAESVGDGERVSRSREKHALLEGRTKELGYTVKKHLQDLSGRISRAR",loss of affinity relative to LRP2 CR89,LRP2 CR89 R1088D (YVWD),~2 fold
same,binding (in words),LRP2 CR89 V1047D (YDWR),failed to bind measurably
same,binding (in words),[1],failed to bind measurably
same,binding (in words),LRP2 CR89 Y1042W (WVWR),prevent binding
same,binding (in words),[2],failed to bind measurably
